Consider three molecules from patent publication US20160175384A1.

Square brackets hold non-standard residues; d marks the D form. * marks the point of attachment. Butanoyl(4-Ph) = O=C(CCCc1ccccc1)*; Butanoyl(4-ethynyl) = C#CCCCC(=O)*

For assay [1], the target named is human melanocortin 1 receptor (human) (UniProt Q01726). The assay is described as follows: competitive binding vs Eu-NDP-alpha-MSH, time-resolved fluorescence, HCT116/hMC1R cells; concentration normalized to the targeting group.
Assay [2] has the same target. The assay is described as follows: time-resolved lanthanide fluorescence competitive binding vs Eu-labeled NDP-alpha-MSH; 10% ligand loading.
For assay [3] the target is unchanged. The assay is described as follows: time-resolved lanthanide fluorescence competitive binding; reference 1-targeted UXL micelles.

Chain of human melanocortin 1 receptor (human) (Q01726 whole entry): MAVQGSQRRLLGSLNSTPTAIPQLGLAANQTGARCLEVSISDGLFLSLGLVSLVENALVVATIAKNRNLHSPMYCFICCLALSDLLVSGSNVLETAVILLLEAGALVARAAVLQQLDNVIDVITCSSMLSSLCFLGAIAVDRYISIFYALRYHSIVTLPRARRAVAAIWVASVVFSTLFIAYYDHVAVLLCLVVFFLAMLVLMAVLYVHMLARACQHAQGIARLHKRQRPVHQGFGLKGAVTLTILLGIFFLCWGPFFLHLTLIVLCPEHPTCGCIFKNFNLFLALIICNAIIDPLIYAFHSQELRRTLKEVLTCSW

B1: 4-targeted triblock polymer micelles (peptide, part only; not given: triblock polymer, part only)
peptide: {Butanoyl(4-Ph)}-H[dF]RWGK(Butanoyl(4-ethynyl))-NH2
modifications: not fully specified; printed as 4-phenylbutyryl-His-DPhe-Arg-Trp-Gly-Lys(hex-5-ynoyl)-NH2; also: Lys hex-5-ynoyl clicked via 1,2,3-triazole to PEG azide of triblock polymer micelle
Turning to B1, the Ki (in general, a measure of affinity in units of concentration, obtained from inhibition or displacement) in assay [1] came out at 11.5 nM.

Consider {Butanoyl(4-Ph)}-H[dF]RWGK(Butanoyl(4-ethynyl))-NH2 (peptide, part only; not given: crosslinked triblock polymer, part only, also: Fe(III)-crosslinked micelle), for which the Ki in assay [2] amounted to 2.9 nM. Besides, the fold lower Ki than the corresponding UXL micelles in assay [3] turned out to be 4 times.

In assay [2], {Butanoyl(4-Ph)}-H[dF]RWGK(Butanoyl(4-ethynyl))-NH2 (peptide, part only; not given: uncrosslinked triblock polymer, part only, also: uncrosslinked micelle) returned a Ki of 12 nM.
